Columns and labels:
Experiment in all cases: cell_activity; human T cells, 1 ug mRNA, day 3
Details in all cases: tags: N-terminal SV40 NLS
B2M 13-14x.371 = target: T1, B2M 13-14x.371 (Artificial Sequence)
T1 chain: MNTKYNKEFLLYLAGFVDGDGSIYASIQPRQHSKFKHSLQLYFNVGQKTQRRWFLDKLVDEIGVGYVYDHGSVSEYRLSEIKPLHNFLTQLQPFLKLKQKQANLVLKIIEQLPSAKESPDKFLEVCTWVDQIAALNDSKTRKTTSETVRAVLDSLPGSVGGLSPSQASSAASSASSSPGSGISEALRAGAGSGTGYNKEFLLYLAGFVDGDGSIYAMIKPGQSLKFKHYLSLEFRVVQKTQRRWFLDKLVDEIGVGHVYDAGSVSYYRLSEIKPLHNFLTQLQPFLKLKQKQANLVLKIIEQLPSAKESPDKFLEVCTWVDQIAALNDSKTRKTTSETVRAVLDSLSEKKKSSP
Method: (§1) Donor human T cells were stimulated with anti-CD3 and anti-CD28 antibodies for 3 days, then electroporated with mRNA encoding a given B2M 13-14 meganuclease (1 μg) using the Amaxa 4D-Nucleofector (Lonza) according to the manufacturer's instructions. To look for the loss of B2M surface expression, cells were stained with an antibody recognizing β-2 microglobulin (BD Biosciences) as well as an antibody recognizing CD3 (BioLegend), a marker of T cells.

B2M 13-14x.479 = target: T2, B2M 13-14x.479 (Artificial Sequence)
T2 chain: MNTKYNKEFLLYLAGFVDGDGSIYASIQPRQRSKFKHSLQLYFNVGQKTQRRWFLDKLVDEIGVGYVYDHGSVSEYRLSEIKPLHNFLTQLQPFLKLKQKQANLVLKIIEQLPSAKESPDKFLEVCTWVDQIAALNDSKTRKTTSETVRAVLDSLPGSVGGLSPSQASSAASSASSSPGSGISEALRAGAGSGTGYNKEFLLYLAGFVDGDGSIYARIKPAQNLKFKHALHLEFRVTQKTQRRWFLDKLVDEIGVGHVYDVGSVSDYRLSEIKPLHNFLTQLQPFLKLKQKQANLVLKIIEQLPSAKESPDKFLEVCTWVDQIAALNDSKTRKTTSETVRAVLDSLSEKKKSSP
Method: as §1

B2M 13-14x.457 = target: T3, B2M 13-14x.457 (Artificial Sequence)
T3 chain: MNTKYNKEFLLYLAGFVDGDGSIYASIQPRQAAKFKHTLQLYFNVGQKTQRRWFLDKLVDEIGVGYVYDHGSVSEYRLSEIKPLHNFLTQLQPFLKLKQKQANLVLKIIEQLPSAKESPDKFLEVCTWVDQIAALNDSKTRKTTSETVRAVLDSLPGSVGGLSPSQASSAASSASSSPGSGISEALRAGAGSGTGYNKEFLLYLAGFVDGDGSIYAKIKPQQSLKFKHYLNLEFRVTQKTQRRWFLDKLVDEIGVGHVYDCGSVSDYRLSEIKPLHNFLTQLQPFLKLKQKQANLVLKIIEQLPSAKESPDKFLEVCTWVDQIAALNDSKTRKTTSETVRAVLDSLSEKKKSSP
Method: as §1

B2M 13-14x.202 = target: T4, B2M 13-14x.202 (Artificial Sequence)
T4 chain: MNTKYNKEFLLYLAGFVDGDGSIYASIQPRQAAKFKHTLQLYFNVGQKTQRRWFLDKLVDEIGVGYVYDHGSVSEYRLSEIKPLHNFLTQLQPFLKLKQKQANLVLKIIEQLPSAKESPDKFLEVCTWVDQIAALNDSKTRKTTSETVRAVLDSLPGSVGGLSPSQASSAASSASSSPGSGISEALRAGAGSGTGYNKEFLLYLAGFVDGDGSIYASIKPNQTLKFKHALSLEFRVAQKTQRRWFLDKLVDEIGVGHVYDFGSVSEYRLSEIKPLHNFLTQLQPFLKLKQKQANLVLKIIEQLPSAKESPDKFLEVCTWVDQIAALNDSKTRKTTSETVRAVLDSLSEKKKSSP
Method: as §1

B2M 13-14x.325 = target: T5, B2M 13-14x.325 (Artificial Sequence)
T5 chain: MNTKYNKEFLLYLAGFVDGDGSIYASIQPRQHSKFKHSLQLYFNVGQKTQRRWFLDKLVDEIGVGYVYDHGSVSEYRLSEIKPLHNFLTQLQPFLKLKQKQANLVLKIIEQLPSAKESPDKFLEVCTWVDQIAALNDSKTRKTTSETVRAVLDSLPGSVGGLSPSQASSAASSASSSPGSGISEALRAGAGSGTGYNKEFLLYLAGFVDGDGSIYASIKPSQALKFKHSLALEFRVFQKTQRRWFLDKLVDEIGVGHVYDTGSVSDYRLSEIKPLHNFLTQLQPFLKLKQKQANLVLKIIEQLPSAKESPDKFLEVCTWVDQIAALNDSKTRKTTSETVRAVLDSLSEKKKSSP
Method: as §1

B2M 13-14x.465 = target: T6, B2M 13-14x.465 (Artificial Sequence)
T6 chain: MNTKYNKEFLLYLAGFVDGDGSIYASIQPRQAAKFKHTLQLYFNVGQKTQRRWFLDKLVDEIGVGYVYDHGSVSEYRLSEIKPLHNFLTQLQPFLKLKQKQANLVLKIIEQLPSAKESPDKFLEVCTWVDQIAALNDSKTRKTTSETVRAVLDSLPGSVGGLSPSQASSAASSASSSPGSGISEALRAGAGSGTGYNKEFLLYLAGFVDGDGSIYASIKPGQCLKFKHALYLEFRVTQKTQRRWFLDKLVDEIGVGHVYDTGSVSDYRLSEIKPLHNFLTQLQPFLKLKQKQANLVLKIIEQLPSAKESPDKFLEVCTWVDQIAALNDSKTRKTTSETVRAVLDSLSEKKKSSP
Method: as §1

B2M 13-14x.285 = target: T7, B2M 13-14x.285 (Artificial Sequence)
T7 chain: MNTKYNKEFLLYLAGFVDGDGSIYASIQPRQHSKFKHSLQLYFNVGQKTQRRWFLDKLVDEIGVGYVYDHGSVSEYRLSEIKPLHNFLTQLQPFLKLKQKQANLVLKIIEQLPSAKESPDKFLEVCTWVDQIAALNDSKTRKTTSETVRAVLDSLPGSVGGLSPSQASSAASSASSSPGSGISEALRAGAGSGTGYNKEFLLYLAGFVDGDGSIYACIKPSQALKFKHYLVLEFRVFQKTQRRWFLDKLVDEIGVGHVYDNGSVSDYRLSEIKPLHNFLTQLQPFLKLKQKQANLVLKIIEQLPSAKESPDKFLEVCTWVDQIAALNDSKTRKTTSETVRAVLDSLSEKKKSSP
Method: as §1

B1: B2M 13-14 recognition sequence (dsDNA)
DNA 1: CTATCTCTTGTACTACACTGAA
DNA 2: TTCAGTGTAGTACAAGAGATAG
- activity (B2M 13-14x.371): 22.6 % B2M-negative
- activity (B2M 13-14x.479): 67.2 % B2M-negative
- activity (B2M 13-14x.457): 19.7 % B2M-negative
- activity (B2M 13-14x.202): 60.9 % B2M-negative
- activity (B2M 13-14x.325): 14.4 % B2M-negative
- activity (B2M 13-14x.465): 30.8 % B2M-negative
- activity (B2M 13-14x.285): 22 % B2M-negative

Reference: patent US20210032664, “ENGINEERED MEGANUCLEASES WITH RECOGNITION SEQUENCES FOUND IN THE HUMAN BETA-2 MICROGLOBULIN GENE” (Precision Biosciences, Inc., published 2021)
